± gives the uncertainty stated by the source.
Assay: protein stability index of a GFP-peptide fusion (yeast GPS) (PSI 1-4); higher = more stable; sorted into four equal gates, so the index is relative within each strain
Summary of the method: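 The protein stability index of a peptide was calculated by multiplying its read frequency in each gate by that gate's number and adding the products. The peptides were tiled 17-residue stretches of yeast proteins, fused downstream of GFP on a Cherry-expressing plasmid and carried in yeast as a pooled library. Mid-log cultures in leucine-free medium were sorted into four equal gates by GFP/Cherry ratio, and each gate's plasmids were PCR-amplified and Illumina-sequenced.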

Sequence | protein stability index (doa10∆) | protein stability index (pdr5∆) | protein stability index (san1∆) | protein stability index (ubr1∆)
PERFMVFQLPTRLPAFE [RPC53] | 2.31 ± 0.065 | 2.75 ± 0.054 | 2.54 ± 0.089 | 2.79 ± 0.058
PEYFESPLQSSKSKQSF [YMR129W/POM152] | 2.78 ± 0.12 | 2.8 ± 0.08 | 2.91 ± 0.084 | 2.96 ± 0.076
PEYLAMYGLTMEWPKDM [ITC1] | 2.45 ± 0.074 | 2.34 ± 0.11 | 2.23 ± 0.14 | 2.14 ± 0.072
PFFKYIDDANVTRKQED [RPC37] | 2.55 ± 0.091 | 2.12 ± 0.064 | 2.34 ± 0.083 | 2.52 ± 0.061
PFILEYDLMAPNGHIST [YMR129W/POM152] | 2.94 ± 0.12 | 3 ± 0.17 |  | 3.05 ± 0.097
PFKGEVVDGTVVSCSQH [RPB7] | 3.04 ± 0.14 | 3.08 ± 0.1 | 2.92 ± 0.088 | 2.56 ± 0.12
PFSYLIDETMMDKPLNF [SRB5] | 2.88 ± 0.11 | 3.09 ± 0.073 | 2.83 ± 0.067 | 2.97 ± 0.054
PFVPVLDRRFEIFFKKD [FAS1] | 2.87 ± 0.059 | 2.98 ± 0.067 | 2.73 ± 0.055 | 2.86 ± 0.057
PFYGSYTETDPAKVAEE [SRP54] | 3.19 ± 0.1 | 3.01 ± 0.14 | 3.08 ± 0.055 | 2.82 ± 0.099
PGEYITTIKAIFDGNYG [YMR129W/POM152] | 2.62 ± 0.066 | 2.72 ± 0.071 | 2.77 ± 0.069 | 2.95 ± 0.07
PGSVNSAAKYKDMKLLR [NUT1] | 2.89 ± 0.11 | 2.87 ± 0.12 | 2.73 ± 0.13 | 2.96 ± 0.085
PGVDVSAEEQLRKIDML [SRB7] | 2.9 ± 0.084 | 2.61 ± 0.061 | 2.31 ± 0.072 | 2.67 ± 0.043
PGVLPVGIDTHTATDIY [SNF2] | 2.96 ± 0.066 | 3.04 ± 0.064 | 2.77 ± 0.045 | 2.69 ± 0.04
PGVRVSGEDVIIGKTTP [RPB2] | 3.36 ± 0.13 | 3.41 ± 0.16 | 3.61 ± 0.078 | 3.45 ± 0.073
PGYVDIVKTSSGNEMPP [RPS19A] | 2.67 ± 0.19 | 2.86 ± 0.11 | 2.84 ± 0.11 | 3.11 ± 0.088
PHANPITHAHSLSNPNS [PGD1] | 2.87 ± 0.046 | 2.99 ± 0.045 | 2.77 ± 0.038 | 2.94 ± 0.03
PHTTLVNECIAQSHQRF [CDC53] | 2.79 ± 0.066 | 2.92 ± 0.052 | 2.85 ± 0.055 | 2.98 ± 0.039
PIGEAGDFGGWFCPCHG [RIP1] | 2 ± 0.1 | 1.97 ± 0.05 | 2.87 ± 0.08 | 3.18 ± 0.075
PIIIYGTENTERPPLLP [YOR098C/NUP1] | 3.13 ± 0.09 | 2.74 ± 0.1 | 2.97 ± 0.06 | 2.94 ± 0.048
PIPIAVLDSYTPSTNEP [FAS1] | 2.78 ± 0.07 | 2.59 ± 0.063 | 2.69 ± 0.074 | 2.85 ± 0.041

Sequence | protein stability index (doa10∆) | protein stability index (pdr5∆) | protein stability index (san1∆) | protein stability index (ubr1∆)
PIYTGDGWVKLTYKSEL [YMR153W/NUP53] | 2.24 ± 0.081 | 2.38 ± 0.09 | 2.45 ± 0.11 | 1.98 ± 0.049
PKAISNFLIKLSELSPG [YCS4] | 2.37 ± 0.08 | 2.51 ± 0.085 | 2.08 ± 0.095 | 2.01 ± 0.056
PKFISEALAFTSLVANE [YDL116W/NUP84] | 1.23 ± 0.067 | 1.38 ± 0.078 | 1.31 ± 0.15 | 1.11 ± 0.17
PKKYKENNTDSARKELE [SMC1] | 2.96 ± 0.059 | 2.8 ± 0.065 | 3.09 ± 0.046 | 3.31 ± 0.057
PKPDKPSGRTRGRSVMK [ESC2] | 3.14 ± 0.17 | 3.05 ± 0.15 | 3.08 ± 0.098 | 3.7 ± 0.13
PKQSDEYLKRVSVPVSG [SIR3] | 3.13 ± 0.086 | 2.55 ± 0.089 | 2.81 ± 0.096 | 2.72 ± 0.14
PKTGKVERSEAISKKDL [SEC65] | 3.63 ± 0.16 | 3.46 ± 0.081 | 3.33 ± 0.14 | 3.23 ± 0.073
PKVPEDIYKSHLDNSKS [RPN1] | 3.1 ± 0.12 | 2.98 ± 0.12 | 2.93 ± 0.1 | 3.24 ± 0.17
PLAKIYLEENKSDSQYR [MED1] | 3.15 ± 0.086 | 3.18 ± 0.065 | 3.15 ± 0.059 | 3.16 ± 0.06
PLDTIETELPTLSLPDS [SMC1] | 3 ± 0.12 | 2.92 ± 0.12 | 2.92 ± 0.083 | 3.09 ± 0.089
PLGKILLKGDNITLITS [SME1] | 1.9 ± 0.093 | 3.12 ± 0.13 | 1.89 ± 0.16 | 3.07 ± 0.061
PLINRLKHYNGYDINYI [SWI1] | 2.41 ± 0.068 | 2.57 ± 0.051 | 2.76 ± 0.065 | 2.69 ± 0.043
PLKYTKLIAAAEDGSRS [SNF6] | 1.3 ± 0.23 | 1.49 ± 0.11 | 1.19 ± 0.21 | 1.57 ± 0.18
PLLTKRKDLRDKLICSI [DIS3] | 2.55 ± 0.088 | 2.62 ± 0.071 | 2.31 ± 0.1 | 3.06 ± 0.13
PLLVPGMTPCTVSPDFV [FAS1] | 1.64 ± 0.096 | 2.38 ± 0.055 | 1.98 ± 0.11 | 1.64 ± 0.065
PMDAYLKLNHIIANINS [SNU114] | 1.26 ± 0.078 | 2.59 ± 0.085 | 1.97 ± 0.22 | 2.4 ± 0.097
PMTVKLVQLPKSAMDTF [POP3] | 2.15 ± 0.058 | 2.52 ± 0.062 | 2.81 ± 0.053 | 2.88 ± 0.053
PNEFMQFKSKEVEKAHP [PRP8] | 3.16 ± 0.08 | 3.37 ± 0.11 | 3.23 ± 0.052 | 3.25 ± 0.091
PNEHPGAKYVIRDSGDR [RPO21] | 3.01 ± 0.084 | 3.1 ± 0.087 | 2.7 ± 0.15 | 3.03 ± 0.069

From the supplement of paper PMC9732359
